Experimental data taken from IntAct's records for PubMed 18809921.

B1: CCAAT/enhancer-binding protein beta (Homo sapiens), P17676 (parent)
chain: MQRLVAWDPACLPLPPPPPAFKSMEVANFYYEADCLAAAYGGKAAPAAPPAARPGPRPPAGELGSIGDHERAIDFSPYLEPLGAPQAPAPATATDTFEAAPPAPAPAPASSGQHHDFLSDLFSDDYGGKNCKKPAEYGYVSLGRLGAAKGALHPGCFAPLHPPPPPPPPPAELKAEPGFEPADCKRKEEAGAPGGGAGMAAGFPYALRAYLGYQAVPSGSSGSLSTSSSSSPPGTPSPADAKAPPTACYAGAAPAPSQVKSKAKKTVDKHSDEYKIRRERNNIAVRKSRDKAKMRNLETQHKVLELTAENERLQKKVEQLSRELSTLRNLFKQLPEPLLASSGHC

Variants of: B1
Conditions: with abc3g_human APOBEC3G

effect of a mutation on the interaction | Variant
decreasing interaction | S288A
